From US20180155451A1 (published 2018)

T1: FcγRIIa R (extracellular domain, C-terminal His tag) (human, UniProt P12318 34-217)
T1 construct: extracellular domain; also called FcgRIIa R type; 2aR; not shown: His tag attached to the C terminus
T1 sequence (looked up): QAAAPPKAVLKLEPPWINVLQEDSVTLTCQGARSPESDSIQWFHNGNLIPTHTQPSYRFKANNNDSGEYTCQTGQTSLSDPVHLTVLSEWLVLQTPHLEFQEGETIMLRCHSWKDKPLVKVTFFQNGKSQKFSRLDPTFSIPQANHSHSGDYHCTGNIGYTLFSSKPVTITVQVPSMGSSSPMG

T2: FcγRIIb (extracellular domain, C-terminal His tag) (human, UniProt P31994 43-217)
T2 construct: extracellular domain; also called FcgRIIb; 2b; not shown: His tag attached to the C terminus
T2 sequence (looked up): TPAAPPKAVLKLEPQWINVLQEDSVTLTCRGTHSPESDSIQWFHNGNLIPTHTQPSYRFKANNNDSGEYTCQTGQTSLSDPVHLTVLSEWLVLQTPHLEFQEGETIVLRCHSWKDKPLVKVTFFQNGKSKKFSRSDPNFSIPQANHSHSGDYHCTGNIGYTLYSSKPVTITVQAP


Tests used:
[1] = target: T1, FcγRIIa R (extracellular domain, …); assay: SPR (Biacore), antibody captured on antigen-peptide chip, FcγR as analyte; relative binding amount
Description: (§1) The heterodimerized antibodies He Abs in which one of the H chains was introduced with an alteration were assayed for their binding activities to each activating FcγR and inhibitory FcγR according to the method described in Example 4. […] The activating FcγRs in FIGS. 26, 27, 28, and 29 are FcγRIa, FcγRIIa (R), FcγRIIa (H), and FcγRIIIa, respectively.
(§2) Analysis of interaction between objective antibody and the FcγR was carried out using Biacore T100 (GE Healthcare). HBS-EP+ (GE Healthcare) was used as the running buffer, and the measurement temperature was set to 25° C. Chips produced by immobilizing the antigen peptide by the amine coupling method to a Series S Sencor Chip CM5 (GE Healthcare), or alternatively, chips produced by allowing preliminarily biotinylated antigen peptides to interact with and immobilize onto a Series S Sensor Chip SA (certified) (GE Healthcare) were used. Antibodies of interest were captured onto an antigen peptide-immobilized chip, and allowed to interact to each FcγR diluted with running buffer. To regenerate and repeatedly use the chip, the antibodies captured on the chip were washed off by reacting 10 mM glycine-HCl, pH 1.5.

[2] = target: T2, FcγRIIb (extracellular domain, …); assay: as above
Description: as §1, §2

Row | Binder | He/Con_2aR [1] | He/Con_2b [2]
1 | GpH7-A5/GpH7-B3 variant S337_06M/GpL16-k0 (antibody, human IgG1, kappa, Heterodimerized anti-glypican-3 IgG1; alteration in only one H chain (GpH7-B3 side); also called He Ab) heavy 1: not shown heavy 2: not shown light: DIVMTQSPLSLPVTPGEPASISCQASESLVHSNRNTYLHWYLQKPGQSPQLLIYKVSNRFSGVPDRFSGSGSGTDFTLKISRVEAEDVGVYYCSQNTHVPPTFGQGTKVEIERTVAAPSVFIFPPSDEQLKSGTASVVCLLNNFYPREAKVQWKVDNALQSGNSQESVTEQDSKDSTYSLSSTLTLSKADYEKHKVYACEVTHQGLSSPVTKSFNRGEC | 105 % of control (GpH7-A5/GpH7-B3/GpL16-k0 = 100) | 96.7 % of control (GpH7-A5/GpH7-B3/GpL16-k0 = 100)
2 | GpH7-A5/GpH7-B3 variant S337_11K/GpL16-k0 (antibody, human IgG1, kappa, Heterodimerized anti-glypican-3 IgG1; alteration in only one H chain (GpH7-B3 side); also called He Ab) heavy 1: not shown heavy 2: not shown light: DIVMTQSPLSLPVTPGEPASISCQASESLVHSNRNTYLHWYLQKPGQSPQLLIYKVSNRFSGVPDRFSGSGSGTDFTLKISRVEAEDVGVYYCSQNTHVPPTFGQGTKVEIERTVAAPSVFIFPPSDEQLKSGTASVVCLLNNFYPREAKVQWKVDNALQSGNSQESVTEQDSKDSTYSLSSTLTLSKADYEKHKVYACEVTHQGLSSPVTKSFNRGEC | 103 % of control (GpH7-A5/GpH7-B3/GpL16-k0 = 100) | 94.3 % of control (GpH7-A5/GpH7-B3/GpL16-k0 = 100)
3 | GpH7-A5/GpH7-B3 variant S337_12R/GpL16-k0 (antibody, human IgG1, kappa, Heterodimerized anti-glypican-3 IgG1; alteration in only one H chain (GpH7-B3 side); also called He Ab) heavy 1: not shown heavy 2: not shown light: DIVMTQSPLSLPVTPGEPASISCQASESLVHSNRNTYLHWYLQKPGQSPQLLIYKVSNRFSGVPDRFSGSGSGTDFTLKISRVEAEDVGVYYCSQNTHVPPTFGQGTKVEIERTVAAPSVFIFPPSDEQLKSGTASVVCLLNNFYPREAKVQWKVDNALQSGNSQESVTEQDSKDSTYSLSSTLTLSKADYEKHKVYACEVTHQGLSSPVTKSFNRGEC | 107 % of control (GpH7-A5/GpH7-B3/GpL16-k0 = 100) | 99.5 % of control (GpH7-A5/GpH7-B3/GpL16-k0 = 100)
4 | GpH7-A5/GpH7-B3 variant S337_19Q/GpL16-k0 (antibody, human IgG1, kappa, Heterodimerized anti-glypican-3 IgG1; alteration in only one H chain (GpH7-B3 side); also called He Ab) heavy 1: not shown heavy 2: not shown light: DIVMTQSPLSLPVTPGEPASISCQASESLVHSNRNTYLHWYLQKPGQSPQLLIYKVSNRFSGVPDRFSGSGSGTDFTLKISRVEAEDVGVYYCSQNTHVPPTFGQGTKVEIERTVAAPSVFIFPPSDEQLKSGTASVVCLLNNFYPREAKVQWKVDNALQSGNSQESVTEQDSKDSTYSLSSTLTLSKADYEKHKVYACEVTHQGLSSPVTKSFNRGEC | 106 % of control (GpH7-A5/GpH7-B3/GpL16-k0 = 100) | 99.7 % of control (GpH7-A5/GpH7-B3/GpL16-k0 = 100)
5 | GpH7-A5/GpH7-B3 variant T335_01G/GpL16-k0 (antibody, human IgG1, kappa, Heterodimerized anti-glypican-3 IgG1; alteration in only one H chain (GpH7-B3 side); also called He Ab) heavy 1: not shown heavy 2: not shown light: DIVMTQSPLSLPVTPGEPASISCQASESLVHSNRNTYLHWYLQKPGQSPQLLIYKVSNRFSGVPDRFSGSGSGTDFTLKISRVEAEDVGVYYCSQNTHVPPTFGQGTKVEIERTVAAPSVFIFPPSDEQLKSGTASVVCLLNNFYPREAKVQWKVDNALQSGNSQESVTEQDSKDSTYSLSSTLTLSKADYEKHKVYACEVTHQGLSSPVTKSFNRGEC | 104 % of control (GpH7-A5/GpH7-B3/GpL16-k0 = 100) | 96.7 % of control (GpH7-A5/GpH7-B3/GpL16-k0 = 100)
6 | GpH7-A5/GpH7-B3 variant T335_02A/GpL16-k0 (antibody, human IgG1, kappa, Heterodimerized anti-glypican-3 IgG1; alteration in only one H chain (GpH7-B3 side); also called He Ab) heavy 1: not shown heavy 2: not shown light: DIVMTQSPLSLPVTPGEPASISCQASESLVHSNRNTYLHWYLQKPGQSPQLLIYKVSNRFSGVPDRFSGSGSGTDFTLKISRVEAEDVGVYYCSQNTHVPPTFGQGTKVEIERTVAAPSVFIFPPSDEQLKSGTASVVCLLNNFYPREAKVQWKVDNALQSGNSQESVTEQDSKDSTYSLSSTLTLSKADYEKHKVYACEVTHQGLSSPVTKSFNRGEC | 102 % of control (GpH7-A5/GpH7-B3/GpL16-k0 = 100) | 94 % of control (GpH7-A5/GpH7-B3/GpL16-k0 = 100)
7 | GpH7-A5/GpH7-B3 variant T335_05P/GpL16-k0 (antibody, human IgG1, kappa, Heterodimerized anti-glypican-3 IgG1; alteration in only one H chain (GpH7-B3 side); also called He Ab) heavy 1: not shown heavy 2: not shown light: DIVMTQSPLSLPVTPGEPASISCQASESLVHSNRNTYLHWYLQKPGQSPQLLIYKVSNRFSGVPDRFSGSGSGTDFTLKISRVEAEDVGVYYCSQNTHVPPTFGQGTKVEIERTVAAPSVFIFPPSDEQLKSGTASVVCLLNNFYPREAKVQWKVDNALQSGNSQESVTEQDSKDSTYSLSSTLTLSKADYEKHKVYACEVTHQGLSSPVTKSFNRGEC | 104 % of control (GpH7-A5/GpH7-B3/GpL16-k0 = 100) | 99.9 % of control (GpH7-A5/GpH7-B3/GpL16-k0 = 100)
8 | GpH7-A5/GpH7-B3 variant T335_06M/GpL16-k0 (antibody, human IgG1, kappa, Heterodimerized anti-glypican-3 IgG1; alteration in only one H chain (GpH7-B3 side); also called He Ab) heavy 1: not shown heavy 2: not shown light: DIVMTQSPLSLPVTPGEPASISCQASESLVHSNRNTYLHWYLQKPGQSPQLLIYKVSNRFSGVPDRFSGSGSGTDFTLKISRVEAEDVGVYYCSQNTHVPPTFGQGTKVEIERTVAAPSVFIFPPSDEQLKSGTASVVCLLNNFYPREAKVQWKVDNALQSGNSQESVTEQDSKDSTYSLSSTLTLSKADYEKHKVYACEVTHQGLSSPVTKSFNRGEC | 105 % of control (GpH7-A5/GpH7-B3/GpL16-k0 = 100) | 99.4 % of control (GpH7-A5/GpH7-B3/GpL16-k0 = 100)
9 | GpH7-A5/GpH7-B3 variant T335_12R/GpL16-k0 (antibody, human IgG1, kappa, Heterodimerized anti-glypican-3 IgG1; alteration in only one H chain (GpH7-B3 side); also called He Ab) heavy 1: not shown heavy 2: not shown light: DIVMTQSPLSLPVTPGEPASISCQASESLVHSNRNTYLHWYLQKPGQSPQLLIYKVSNRFSGVPDRFSGSGSGTDFTLKISRVEAEDVGVYYCSQNTHVPPTFGQGTKVEIERTVAAPSVFIFPPSDEQLKSGTASVVCLLNNFYPREAKVQWKVDNALQSGNSQESVTEQDSKDSTYSLSSTLTLSKADYEKHKVYACEVTHQGLSSPVTKSFNRGEC | 100 % of control (GpH7-A5/GpH7-B3/GpL16-k0 = 100) | 91.9 % of control (GpH7-A5/GpH7-B3/GpL16-k0 = 100)
